Measurements published in publication doi:10.1101/2022.09.09.507385 (bioRxiv, 2022).

Biological target: the molecule itself
Assay: cryo-EM structure

| Protein | stoichiometry N | binding result |
| --- | --- | --- |
| human Pannexin3 (PANX3), full length (natural protein, N-acetylglucosamine (NAG) at N71; disulfide bonds C66-C261 and C84-C242) MSLAHTAAEYMLSDALLPDRRGPRLKGLRLELPLDRIVKFVAVGSPLLLMSLAFAQEFSSGSPISCFSPSNFSIRQAAYVDSSCWDSLLHHKQDGPGQDKMKSLWPHKALPYSLLALALLMYLPVLLWQYAAVPALSSDLLFIISELDKSYNRSIRLVQHMLKIRQKSSDPYVFWNELEKARKERYFEFPLLERYLACKQRSHSLVATYLLRNSLLLIFTSATYLYLGHFHLDVFFQEEFSCSIKTGLLSDETHVPNLITCRLTSLSIFQIVSLSSVAIYTILVPVIIYNLTRLCRWDKRLLSVYEMLPAFDLLSRKMLGCPINDLNVILLFLRANISELISFSWLSVLCVLKDTTTQKHNIDTVVDFMTLLAGLEPSKPKHLTNSACDEHP | 7 | – |
| human Pannexin1 wild type (PANX1WT), full length (natural protein) MAIAQLATEYVFSDFLLKEPTEPKFKGLRLELAVDKMVTCIAVGLPLLLISLAFAQEISIGTQISCFSPSSFSWRQAAFVDSYCWAAVQQKNSLQSESGNLPLWLHKFFPYILLLFAILLYLPPLFWRFAAAPHICSDLKFIMEELDKVYNRAIKAAKSARDLDMRDGACSVPGVTENLGQSLWEVSESHFKYPIVEQYLKTKKNSNNLIIKYISCRLLTLIIILLACIYLGYYFSLSSLSDEFVCSIKSGILRNDSTVPDQFQCKLIAVGIFQLLSVINLVVYVLLAPVVVYTLFVPFRQKTDVLKVYEILPTFDVLHFKSEGYNDLSLYNLFLEENISEVKSYKCLKVLENIKSSGQGIDPMLLLTNLGMIKMDVVDGKTPMSAEMREEQGNQTAELQGMNIDSETKANNGEKNARQRLLDSSC | – | binds |
| human Pannexin1 double mutant W74R/R75D (PANX1DM) (natural protein) MAIAQLATEYVFSDFLLKEPTEPKFKGLRLELAVDKMVTCIAVGLPLLLISLAFAQEISIGTQISCFSPSSFSRDQAAFVDSYCWAAVQQKNSLQSESGNLPLWLHKFFPYILLLFAILLYLPPLFWRFAAAPHICSDLKFIMEELDKVYNRAIKAAKSARDLDMRDGACSVPGVTENLGQSLWEVSESHFKYPIVEQYLKTKKNSNNLIIKYISCRLLTLIIILLACIYLGYYFSLSSLSDEFVCSIKSGILRNDSTVPDQFQCKLIAVGIFQLLSVINLVVYVLLAPVVVYTLFVPFRQKTDVLKVYEILPTFDVLHFKSEGYNDLSLYNLFLEENISEVKSYKCLKVLENIKSSGQGIDPMLLLTNLGMIKMDVVDGKTPMSAEMREEQGNQTAELQGMNIDSETKANNGEKNARQRLLDSSC | – | binds |
| human Pannexin1 congenital mutant R217H (PANX1_(R217H)) (natural protein) MAIAQLATEYVFSDFLLKEPTEPKFKGLRLELAVDKMVTCIAVGLPLLLISLAFAQEISIGTQISCFSPSSFSWRQAAFVDSYCWAAVQQKNSLQSESGNLPLWLHKFFPYILLLFAILLYLPPLFWRFAAAPHICSDLKFIMEELDKVYNRAIKAAKSARDLDMRDGACSVPGVTENLGQSLWEVSESHFKYPIVEQYLKTKKNSNNLIIKYISCHLLTLIIILLACIYLGYYFSLSSLSDEFVCSIKSGILRNDSTVPDQFQCKLIAVGIFQLLSVINLVVYVLLAPVVVYTLFVPFRQKTDVLKVYEILPTFDVLHFKSEGYNDLSLYNLFLEENISEVKSYKCLKVLENIKSSGQGIDPMLLLTNLGMIKMDVVDGKTPMSAEMREEQGNQTAELQGMNIDSETKANNGEKNARQRLLDSSC | – | binds |
